Assay results from patent publication US20170107290A1.

Biological target: human Axl on MDA-MB-231 cells (human) (UniProt P30530)
UniProt P30530, sequence (P30530 26-894 Q764R limits assumed): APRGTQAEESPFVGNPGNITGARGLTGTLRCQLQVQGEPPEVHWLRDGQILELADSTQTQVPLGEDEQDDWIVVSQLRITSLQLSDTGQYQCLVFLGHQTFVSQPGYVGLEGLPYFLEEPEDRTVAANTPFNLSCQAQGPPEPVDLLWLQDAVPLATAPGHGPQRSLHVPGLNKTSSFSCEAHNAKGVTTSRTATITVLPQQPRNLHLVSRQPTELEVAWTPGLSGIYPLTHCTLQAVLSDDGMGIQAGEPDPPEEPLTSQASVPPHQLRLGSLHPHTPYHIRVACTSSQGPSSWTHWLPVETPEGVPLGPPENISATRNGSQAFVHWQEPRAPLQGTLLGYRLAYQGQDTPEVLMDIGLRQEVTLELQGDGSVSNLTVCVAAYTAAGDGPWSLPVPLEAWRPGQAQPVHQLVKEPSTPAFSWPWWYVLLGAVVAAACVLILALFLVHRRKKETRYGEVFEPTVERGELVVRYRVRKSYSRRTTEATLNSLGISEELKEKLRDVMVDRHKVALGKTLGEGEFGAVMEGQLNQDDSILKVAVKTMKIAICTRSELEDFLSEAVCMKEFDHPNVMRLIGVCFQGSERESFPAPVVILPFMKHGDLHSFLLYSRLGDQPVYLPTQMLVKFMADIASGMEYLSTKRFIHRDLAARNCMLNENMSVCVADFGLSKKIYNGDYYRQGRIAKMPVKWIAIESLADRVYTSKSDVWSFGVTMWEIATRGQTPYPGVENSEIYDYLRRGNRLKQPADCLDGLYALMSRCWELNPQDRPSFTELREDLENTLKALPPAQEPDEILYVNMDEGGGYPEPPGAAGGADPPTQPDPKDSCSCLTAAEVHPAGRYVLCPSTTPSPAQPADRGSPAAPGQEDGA

With Control SAP the EC50 (pM), concentration leading to 50% cell killing, XTT/PMS viability of MDA-MB-231 cells after 72 h [table] was 4080 pM.

Work on Saporin yielded an EC50 (pM), concentration leading to 50% cell killing, XTT/PMS viability of MDA-MB-231 cells after 72 h [table] of 79800 pM.
